Assay results: US7056715B1, “GST sequences from soybean and their use in the production of herbicide resistant plants” (Syngenta Limited, priority 1999, dated 2006)

T1: Glycine max (soybean) homoglutathione synthetase, recombinant, C-terminal HIS-tag (pET-MS4-His), SEQ ID No. 1 (Glycine max, UniProt Q9M426)
T1 sequence (Q9M426 1-499): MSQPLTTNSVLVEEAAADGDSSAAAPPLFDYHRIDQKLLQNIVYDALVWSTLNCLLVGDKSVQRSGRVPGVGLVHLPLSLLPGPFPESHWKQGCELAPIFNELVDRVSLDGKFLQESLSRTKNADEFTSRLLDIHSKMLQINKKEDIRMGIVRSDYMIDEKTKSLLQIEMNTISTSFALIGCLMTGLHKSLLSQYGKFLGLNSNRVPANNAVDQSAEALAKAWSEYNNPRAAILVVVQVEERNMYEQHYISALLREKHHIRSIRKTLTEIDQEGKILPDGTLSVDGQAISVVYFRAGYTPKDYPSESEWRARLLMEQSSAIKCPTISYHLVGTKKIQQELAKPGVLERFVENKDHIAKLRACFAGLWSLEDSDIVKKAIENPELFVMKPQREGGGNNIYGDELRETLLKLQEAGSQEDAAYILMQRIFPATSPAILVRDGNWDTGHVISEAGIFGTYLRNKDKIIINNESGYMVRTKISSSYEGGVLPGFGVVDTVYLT


Legend:
[1] = molecular target: T1, Glycine max (soybean) homoglutathione synthetase, recombinant, C-terminal HIS-tag (pET-MS4-His), SEQ ID No. 1; assay: Activity of recombinant homoglutathione synthetase (addition of glycine or β-alanine onto γ-glutamylcysteine; monobromobimane derivatisation); format: biochemical; conditions: 250 mM Tris-HCl pH 8.0, 50 mM KCl, 20 mM MgCl2, 5 mM DTT, 10 mM ATP, 1 mM γ-glutamylcysteine; 30° C.
Description: (§1) A 5′ Nco 1 and 3′ Xho 1 restriction enzyme site were introduced into the homoglutathione synthetase cDNA via PCR using primers MS4-Nco (SEQ ID No. 19) and MS-4-HIS (SEQ ID No. 20). Additionally, the use of the MS4-HIS primer provided a C-terminal HIS-tag to assist purification of the enzyme. 5.2 The resulting PCR fragment was digested with Nco1 and Xho 1 and ligated into similarly digested pET-24d. This vector was termed pET-MS4-His. The purification of homoglutathione synthetase was performed using the following method. E. coli BL21 (DE3) harbouring the pET-MS4-His plasmid (section 1.3) were grown at 30° C. until OD600=0.5, after which isopropyl-β-D-thiogalactoside (IPTG) was added to a final concentration of 0.1 mM. Following a 3 hour incubation the bacteria were collected by centrifugation, re-suspended in buffer A (20 mM Tris, 0.5 M NaCl, 5 mM imidazole pH 8.0) and lysed. […] 5.3 The eluted protein was concentrated using a Centriplus 30 (Amicon™) spin column and re-suspended in buffer A prior to application onto a 1 ml HiTrap chelating column (Phamacia™), pre-charged with NiSO4 and equilibrated as described previously. Affinity bound protein was then recovered using an increasing concentration of 20–200 mM imidiazole and the presence of His-tagged recombinant homoglutathione synthetase was detected using His-tagged antibodies according to known procedures. […]

[2] = GST activity of purified recombinant protein toward CDNB; format: biochemical; conditions: recombinant enzyme, ±SE, n=2; for GST activity toward CDNB, GSH: thiol GSH; for GST activity toward CDNB, hGSH: thiol hGSH
Description: (§2) 4.2 Nde I or Nco I sites were introduced as appropriate into the 5′ end cDNAs encoding glutathione S-transferase and Bam H1 at the 3′ end using PCR. The cDNA was then cloned into pET-24a or pET-24d as appropriate. The resulting plasmids were introduced into E. coli BL21 (DE3) using standard bacterial transformation procedures known to the skilled artisan. Expression and purification of the recombinant GST was performed using anion-exchange chromatography and S-Hexyl-glutathione affinity chromatography according to the methods known in the art (for example, Skipsey et al., 1997). GST activity of the purified recombinant protein toward CDNB, acetochlor, acifluorfen, chlorimuron-ethyl, fluorodifen. fomesafen and metolachlor in the presence of both glutathione and homoglutathione was performed via assays which are described in Andrews et al., 1997 and Skipsey et al., 1997.

[3] = GST activity of purified recombinant protein toward acetochlor; format: biochemical; conditions: recombinant enzyme, ±SE, n=2; for GST activity toward acetochlor, GSH: thiol GSH; for GST activity toward acetochlor, hGSH: thiol hGSH
Description: as §2

[4] = GST activity of purified recombinant protein toward acifluorfen; format: biochemical; conditions: recombinant enzyme, ±SE, n=2; for GST activity toward acifluorfen, GSH: thiol GSH; for GST activity toward acifluorfen, hGSH: thiol hGSH
Description: as §2

[5] = GST activity of purified recombinant protein toward fluorodifen; format: biochemical; conditions: recombinant enzyme, ±SE, n=2; for GST activity toward fluorodifen, GSH: thiol GSH; for GST activity toward fluorodifen, hGSH: thiol hGSH
Description: as §2

[6] = GST activity of purified recombinant protein toward fomesafen; format: biochemical; conditions: recombinant enzyme, ±SE, n=2; for GST activity toward fomesafen, GSH: thiol GSH; for GST activity toward fomesafen, hGSH: thiol hGSH
Description: as §2

[7] = GST activity of purified recombinant protein toward metolachlor; format: biochemical; conditions: recombinant enzyme, ±SE, n=2; for GST activity toward metolachlor, GSH: thiol GSH; for GST activity toward metolachlor, hGSH: thiol hGSH
Description: as §2

[8] = substrate: NCCC(=O)O; assay: purified protein, by the assay type; conditions: other: 250 mM Tris-HCl pH 8.0, 50 mM KCl, 20 mM MgCl2, 5 mM DTT, 10 mM ATP, 1 mM γ-glutamylcysteine, 30° C.
[9] = substrate: NCC(=O)O; assay: purified protein, by the assay type; format: biochemical, Glycine max (soybean); conditions: other: 250 mM Tris-HCl pH 8.0, 50 mM KCl, 20 mM MgCl2, 5 mM DTT, 10 mM ATP, 1 mM γ-glutamylcysteine, 30° C.
Description: as §1

Molecule	Vmax [1]	GST activity toward CDNB, GSH [2]	GST activity toward CDNB, hGSH [2]	GST activity toward acetochlor, GSH [3]	GST activity toward acifluorfen, GSH [4]	GST activity toward acifluorfen, hGSH [4]	GST activity toward fluorodifen, GSH [5]	GST activity toward fluorodifen, hGSH [5]	GST activity toward fomesafen, GSH [6]	GST activity toward fomesafen, hGSH [6]	GST activity toward metolachlor, GSH [7]	GST activity toward metolachlor, hGSH [7]	GST activity toward acetochlor, hGSH [3]	Km [8]	Km [9]
NCCC(=O)O [β-alanine]	42250 ± 3173 pkats/mg hGS														
NCC(=O)O [Glycine]	3300 ± 341 pkats/mg hGS														
GST 3.3: Recombinant soybean Glutathione-S-transferase 3.3, SEQ ID No. 10; may also be referred to as GST 3.6 (protein, Glycine max) MAERDLRLLGAWFSPFALRVQIALNLKGLDYEVVEETLNPKSELLLKSNPVHKKIPVFFHGDKVICESAIIVEYIDEVWSNNALSILPQNAYDRANARFWVSYIDDKWLTSLKSVLATEDDEAKKLHFEQAEEVLEKVEEVFNKCSEGKAYFGGDTIGFVDIGFGSFLSFIRVSENMNERKLLDETKYPGLTLWAETFAADPAVKGLLPETEKLVEFAKILQLKWAAAAAAK		82.9 nkat mg-1	189.0 nkat mg-1	420.0 pkat mg-1	123.0 pkat mg-1	1350 pkat mg-1	360.5 pkat mg-1	602.5 pkat mg-1	110 pkat mg-1	6250 pkat mg-1	312.0 pkat mg-1	264.5 pkat mg-1			
GST 2.6: Recombinant soybean Glutathione-S-transferase 2.6, SEQ ID No. 7 (protein, Glycine max) MSSSQEEVTLLGVVGSPFLHRVQIALKLKGVEYKYLEDDLNNKSDLLLKYNPVYKMIPVLVHNEKPISESLVIVEYIDDTWKNNPILPSDPYQRALARFWAKFIDDKCVVPAWKSAFMTDEKEKEKAKEELFEALSFLENELKGKFFGGEEFGFVDIAAVLIPIIQEIAGLQLFTSEKFPKLSKWSQDFHNHPVVNEVMPPKDQLFAYFKARAQSFVAKRKN		18.7 nkat mg-1	19.0 nkat mg-1	352.5 pkat mg-1		31.1 pkat mg-1		19.3 pkat mg-1	27.1 pkat mg-1	350.5 pkat mg-1	142.0 pkat mg-1	95.5 pkat mg-1	391.0 pkat mg-1		
Glycine max (soybean) homoglutathione synthetase, recombinant, C-terminal HIS-tag (pET-MS4-His), SEQ ID No. 1 (Glycine max) (protein) MSQPLTTNSVLVEEAAADGDSSAAAPPLFDYHRIDQKLLQNIVYDALVWSTLNCLLVGDKSVQRSGRVPGVGLVHLPLSLLPGPFPESHWKQGCELAPIFNELVDRVSLDGKFLQESLSRTKNADEFTSRLLDIHSKMLQINKKEDIRMGIVRSDYMIDEKTKSLLQIEMNTISTSFALIGCLMTGLHKSLLSQYGKFLGLNSNRVPANNAVDQSAEALAKAWSEYNNPRAAILVVVQVEERNMYEQHYISALLREKHHIRSIRKTLTEIDQEGKILPDGTLSVDGQAISVVYFRAGYTPKDYPSESEWRARLLMEQSSAIKCPTISYHLVGTKKIQQELAKPGVLERFVENKDHIAKLRACFAGLWSLEDSDIVKKAIENPELFVMKPQREGGGNNIYGDELRETLLKLQEAGSQEDAAYILMQRIFPATSPAILVRDGNWDTGHVISEAGIFGTYLRNKDKIIINNESGYMVRTKISSSYEGGVLPGFGVVDTVYLT														0.84 ± 0.19 mM	54.9 ± 18.7 mM
GST 3.1: Recombinant soybean Glutathione-S-transferase 3.1, SEQ ID No. 8 (protein, Glycine max) MAEQDKVILHGMWASPYAKRVELALNFKGIPYEYVEEDLRNKSDLLLKYNPVHKKVPVLVHNGKAIAESMVILEYIDETWKDGPKLLPSDSYKRAQARFWCHFIQDQLMESTFLVVKTDGEAQQKAIDHVYEKLKVLEDGMKTYLGEGNAIISGVENNFGILDIVFCALYGAYKAHEEVIGLKFIVPEKFPVLFSWLMAIAEVEAVKIATPPHEKTVGILQLFRLSALKSSSATE		59.2 nkat mg-1	59.2 nkat mg-1	190.5 pkat mg-1	152.5 pkat mg-1	238.5 pkat mg-1	1150 pkat mg-1	1350 pkat mg-1	213.6 pkat mg-1	484.6 pkat mg-1	177.5 pkat mg-1	67.5 pkat mg-1	11.0 pkat mg-1		
GST 3.2: Recombinant soybean Glutathione-S-transferase 3.2, SEQ ID No. 9 (protein, Glycine max) MAEVKLHGFWYSPYTLRVVWTLKLKDIPYQNIEEDRYNKSLQLLEYNPVYKKTPVLVHNGKPLCESMLIVEYIDEIWAHNSLLPADPYERALARFWVKYADDDMFSAVIAFFLSNNDEEREKSIEKIWEHLRVVENQCFGDQKKFFGGDIINIMDIAFGSIFKILVVAEDILDAKVLEDEKFPHLHSWYNNFKDVAVIKENLPDHEKMVAFAKFIREKRLACT		24.9 nkat mg-1	10.3 nkat mg-1	418.0 pkat mg-1	7.5 pkat mg-1	23.2 pkat mg-1	78.2 pkat mg-1	68.0 pkat mg-1	21.3 pkat mg-1	201.6 pkat mg-1	253.0 pkat mg-1	191.5 pkat mg-1	143.0 pkat mg-1		
